The target in data set [1] is T1, HuRΔIII (ΔRRMIII) (UniProt Q15717 1-243). The data set can be described thus: EMSA; EMSA: 20 mM Tris-HCl pH 7.8, 150 mM KCl, 2 mM MgCl2, 0.1% Triton X-100, 0.5 mM DTT, heparin 5 mg/ml, BSA 1 mg/ml, 10% glycerol, on ice 15 min; 6% native PAGE, 0.
The target of data set [2] is T1, HuRΔIII (ΔRRMIII). The data set is described as follows: displacement from Ago2 miRNPs, HuR IP and qRT-PCR; 300 nM protein, 5 mM Mg2+, 30 C, 60 min; EMSA: 20 mM Tris-HCl pH 7.8, 150 mM KCl, 2 mM MgCl2, 0.1% Triton X-100, 0.5 mM DTT, heparin 5 mg/ml, BSA 1 mg/ml, 10% glycerol, on ice 15 min; 6% native PAGE, 0. (In general: In EMSA bound probe runs differently from free probe, usually more slowly.)

T1 sequence (Q15717 1-243, stated change not applied): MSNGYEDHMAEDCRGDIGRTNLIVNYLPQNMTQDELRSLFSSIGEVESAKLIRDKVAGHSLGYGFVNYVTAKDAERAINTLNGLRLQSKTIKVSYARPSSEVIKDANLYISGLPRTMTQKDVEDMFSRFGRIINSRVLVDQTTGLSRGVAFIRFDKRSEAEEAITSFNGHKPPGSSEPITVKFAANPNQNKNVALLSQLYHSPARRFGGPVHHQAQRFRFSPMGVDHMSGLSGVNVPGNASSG

B1: TNF-alpha 3'UTR ARE RNA (ssRNA)
RNA: AUUAUUUAUUAUUUAUUUAUUAUUUAUUUAUUUA
Turning to B1, the binding result with HuRΔIII (ΔRRMIII) [1] is listed as “binds”.

B2: miR-122 from cell-expressed Ago2 miRNPs (ssRNA)
RNA: UGGAGUGUGACAAUGGUGUUUG
Turning to B2, the binding signal with HuRΔIII (ΔRRMIII) [2] was ~14 fold reduction vs full-length HuR.
